T1: CD73 on the surface of human cells (human, UniProt P21589 27-549)
T1 sequence (looked up): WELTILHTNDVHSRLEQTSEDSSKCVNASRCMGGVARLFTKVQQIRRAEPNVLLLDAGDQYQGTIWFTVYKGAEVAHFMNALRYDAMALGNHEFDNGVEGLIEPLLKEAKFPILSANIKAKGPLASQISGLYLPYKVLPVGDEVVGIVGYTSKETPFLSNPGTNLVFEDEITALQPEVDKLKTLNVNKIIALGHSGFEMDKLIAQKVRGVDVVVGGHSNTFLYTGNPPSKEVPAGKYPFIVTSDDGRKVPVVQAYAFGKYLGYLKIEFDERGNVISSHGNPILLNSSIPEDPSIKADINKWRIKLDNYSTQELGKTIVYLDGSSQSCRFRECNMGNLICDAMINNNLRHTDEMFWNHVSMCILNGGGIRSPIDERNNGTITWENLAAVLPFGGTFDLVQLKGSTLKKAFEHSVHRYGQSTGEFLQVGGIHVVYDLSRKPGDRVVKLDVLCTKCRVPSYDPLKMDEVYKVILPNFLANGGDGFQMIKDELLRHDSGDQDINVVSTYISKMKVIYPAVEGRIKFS

T2: extracellular domain of human CD73 protein, C-terminus polyhistidine-tagged (human, UniProt P21589 27-547)
T2 construct: also the immunogen; also called CD73-ECD; human CD73-ECD
T2 sequence: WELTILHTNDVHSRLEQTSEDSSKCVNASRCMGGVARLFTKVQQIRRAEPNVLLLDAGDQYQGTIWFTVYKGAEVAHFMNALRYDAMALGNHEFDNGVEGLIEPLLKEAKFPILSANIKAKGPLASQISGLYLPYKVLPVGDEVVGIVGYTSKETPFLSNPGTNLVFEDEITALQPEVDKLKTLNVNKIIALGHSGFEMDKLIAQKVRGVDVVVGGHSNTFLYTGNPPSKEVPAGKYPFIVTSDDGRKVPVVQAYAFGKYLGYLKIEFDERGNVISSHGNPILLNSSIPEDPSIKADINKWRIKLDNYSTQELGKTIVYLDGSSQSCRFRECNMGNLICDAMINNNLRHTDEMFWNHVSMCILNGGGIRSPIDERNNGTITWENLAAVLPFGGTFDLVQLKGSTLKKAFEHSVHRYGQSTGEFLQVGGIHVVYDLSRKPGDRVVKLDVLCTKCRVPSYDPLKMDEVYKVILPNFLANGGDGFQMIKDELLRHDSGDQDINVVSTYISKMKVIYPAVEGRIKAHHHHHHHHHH

T3: cynomolgus monkey CD73-ECD (cynomolgus monkey, UniProt A0A2K5V5U7 27-549)
T3 construct: also called cynomolgus CD73-ECD
T3 sequence: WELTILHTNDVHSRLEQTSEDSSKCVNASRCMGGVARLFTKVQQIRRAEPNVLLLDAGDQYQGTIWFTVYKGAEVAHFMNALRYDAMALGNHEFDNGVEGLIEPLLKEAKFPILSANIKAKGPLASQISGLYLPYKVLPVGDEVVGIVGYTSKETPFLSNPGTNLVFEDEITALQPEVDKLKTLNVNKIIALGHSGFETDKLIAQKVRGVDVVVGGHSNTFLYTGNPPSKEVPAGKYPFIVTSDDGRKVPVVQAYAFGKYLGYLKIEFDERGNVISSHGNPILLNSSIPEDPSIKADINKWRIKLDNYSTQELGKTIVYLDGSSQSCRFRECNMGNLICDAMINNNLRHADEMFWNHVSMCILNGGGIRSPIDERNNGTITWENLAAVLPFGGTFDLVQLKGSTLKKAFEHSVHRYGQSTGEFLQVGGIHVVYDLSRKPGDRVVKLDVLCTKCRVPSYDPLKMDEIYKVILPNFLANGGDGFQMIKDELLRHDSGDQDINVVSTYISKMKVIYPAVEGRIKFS

T4: human recombinant CD73 enzyme (CD73 extracellular region) (human, UniProt P21589 27-549)
T4 sequence (looked up): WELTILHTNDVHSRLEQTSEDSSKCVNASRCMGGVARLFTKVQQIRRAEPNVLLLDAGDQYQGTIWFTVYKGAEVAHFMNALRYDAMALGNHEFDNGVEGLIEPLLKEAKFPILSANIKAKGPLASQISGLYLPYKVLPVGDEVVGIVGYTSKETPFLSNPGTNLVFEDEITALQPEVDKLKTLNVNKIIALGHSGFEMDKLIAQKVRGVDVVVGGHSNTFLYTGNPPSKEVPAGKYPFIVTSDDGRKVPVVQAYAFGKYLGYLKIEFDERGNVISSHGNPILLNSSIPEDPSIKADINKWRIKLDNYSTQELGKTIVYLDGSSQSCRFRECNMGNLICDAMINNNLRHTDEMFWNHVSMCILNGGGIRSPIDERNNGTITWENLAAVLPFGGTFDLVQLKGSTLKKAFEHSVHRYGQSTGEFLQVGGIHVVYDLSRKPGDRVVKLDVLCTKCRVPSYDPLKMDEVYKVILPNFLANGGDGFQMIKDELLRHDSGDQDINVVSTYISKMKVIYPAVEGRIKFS

B1: humanized antibody 3D7-HM9-FCWT (Fc fusion)
VHH: QRQLVESGGGLVQPGGSLRLSCAASGFLLDYYVIGWFRQAPGKEREGVSCISGSDRSTYYADSVKGRFTISRDNAKNTVYLQMSSLRAEDTAVYYCAADPSPVTVQAMCLPRFPVPYWGKGTLVTVSS
notes: 3D7-HM9 VH on an Fc called FCWT; not shown: FCWT Fc segment
B2: 5-E11 derived antibody 5-E11ASCS (VHH)
VHH: ALQLVESGGGLVQPGGSLRLSCEVSGFTLDYYNIGWFRQAPGKEREGVSSSSASGGSTYYADSVKGRFTISRDNAKNTVYLQMNSLKPEDTGVYYCAAYRGWHPSLDARVYDYWGQGTEVTVSS
B3: humanized antibody 3D7-HM8-FC1 (Fc fusion)
heavy: QRQLVESGGGLVQPGGSLRLSCAASGFLLDYYVIGWFRQAPGKEREGVSCISGSDRSTYYADSVKGRFTISRDNSKNTVYLQMSSLRAEDTAVYYCAADPSPVTVQAMCLPRFPVPYWGQGTLVTVSSEPKSSDKTHTCPPCPAPEFEGGPSVFLFPPKPKDTLMISRTPEVTCVVVDVSHEDPEVKFNWYVDGVEVHNAKTKPREEQYNSTYRVVSVLTVLHQDWLNGKEYKCKVSNKALPASIEKTISKAKGQPREPQVYTLPPSRDELTKNQVSLTCLVKGFYPSDIAVEWESNGQPENNYKTTPPVLDSDGSFFLYSKLTVDKSRWQQGNVFSCSVMHEALHNHYTQKSLSLSPGK
B4: humanized antibody 3D7-HM9-FC1 (Fc fusion)
heavy: QRQLVESGGGLVQPGGSLRLSCAASGFLLDYYVIGWFRQAPGKEREGVSCISGSDRSTYYADSVKGRFTISRDNAKNTVYLQMSSLRAEDTAVYYCAADPSPVTVQAMCLPRFPVPYWGKGTLVTVSSEPKSSDKTHTCPPCPAPEFEGGPSVFLFPPKPKDTLMISRTPEVTCVVVDVSHEDPEVKFNWYVDGVEVHNAKTKPREEQYNSTYRVVSVLTVLHQDWLNGKEYKCKVSNKALPASIEKTISKAKGQPREPQVYTLPPSRDELTKNQVSLTCLVKGFYPSDIAVEWESNGQPENNYKTTPPVLDSDGSFFLYSKLTVDKSRWQQGNVFSCSVMHEALHNHYTQKSLSLSPGK
B5: humanized antibody 3D7-HM7-FC1 (Fc fusion)
heavy: QRQLVESGGGLVQPGGSLRLSCAASGFLLDYYVIGWFRQAPGKEREGVSCISGSDRSTYYADSVKGRFTISRDNSKNTVYLQMGSLRAEDTAVYYCAADPSPVTVQAMCLPRFPVPYWGQGTLVTVSSEPKSSDKTHTCPPCPAPEFEGGPSVFLFPPKPKDTLMISRTPEVTCVVVDVSHEDPEVKFNWYVDGVEVHNAKTKPREEQYNSTYRVVSVLTVLHQDWLNGKEYKCKVSNKALPASIEKTISKAKGQPREPQVYTLPPSRDELTKNQVSLTCLVKGFYPSDIAVEWESNGQPENNYKTTPPVLDSDGSFFLYSKLTVDKSRWQQGNVFSCSVMHEALHNHYTQKSLSLSPGK

What was measured:
[1] = biological target: T1, CD73 on the surface of human cells; experiment: cell-based or functional assay
[2] = biological target: T2, extracellular domain of human CD73 …; experiment: ELISA, coated human CD73-ECD, method of Example 3
Method: (§1) The CD73 protein extracellular region (CD73-ECD) was diluted to 1 μg/mL using the coating solution, and an ELISA plate was coated at 100 μL/well at 4° C. overnight. Excess antigens were washed away, and the plate was blocked with 1% BSA at room temperature for 2 hours. Then, 5-fold gradient dilutions of each monoclonal antibody were added at 100 μL/well and incubated at room temperature for 1 hour. Unbound antibodies were washed away, and an appropriate concentration of Staphylococcal protein A labeled with horseradish peroxidase was added at 100 μL/well and incubated at room temperature for 0.5 hours. Unbound secondary antibodies were washed away, and TMB color development solution was added to react for about 15 minutes. 1M HCL was added at 50 µL/well to terminate the color development reaction, and then the absorbance was measured at 450 nm and the data was analyzed.
(§2) The affinity of the humanized antibody to human and cynomolgus CD73-ECD was detected according to the ELISA determination method of Example 3.

[3] = biological target: T3, cynomolgus monkey CD73-ECD; experiment: ELISA, coated cynomolgus CD73-ECD, method of Example 3
Method: as §1, §2

[4] = biological target: T1, CD73 on the surface of human cells; experiment: flow cytometry on SW1573 cells
Method: (§3) 100 μL of the test antibodies diluted from 10 μg/mL to 0.016 μg/mL in a 5-fold gradient were used as the primary antibodies, and were mixed with 1×10⁵ tumor cells suspended in 100 μL RPMI-1640 serum-free medium to make a final concentration of 5 μg/mL diluted to 0.008 μg/mL, and then incubated at 4° C. for 1 h. The cells were washed twice with PBS to remove unbound primary antibodies, and then the target cells were incubated with 200 μLPE-labeled secondary antibody at 2 μg/mL at 4° C. for 30 min. The cells were washed twice with PBS to remove unbound secondary antibodies, and finally the cells were resuspended in 200 μL PBS. The binding affinity of the test antibodies to CD73 on the surface of the corresponding cells was measured by flow cytometry.

[5] = biological target: T2, extracellular domain of human CD73 …; experiment: ELISA, coated CD73-ECD, method of Example 3
Method: as §1
(§4) Based on the above mutants, 5-E11ASCS was designed and prepared, and the CD73 antigen ELISA binding affinity test was performed according to the method of Example 3.

[6] = biological target: T2, extracellular domain of human CD73 …; experiment: ELISA on coated human CD73-ECD (the text rounds this value to 0.018 µg/mL)
Method: as §1, §4

[7] = biological target: T4, human recombinant CD73 enzyme (CD73 …); experiment: cell-based or functional assay
[8] = biological target: T1, CD73 on the surface of human cells; experiment: flow cytometry on NCI-H1299 cells
[9] = biological target: T1, CD73 on the surface of human cells; experiment: Flow cytometry on NCI-H1299 cells
Method: as §3
The binding affinity of the humanized antibodies to NCI-H1299 cells was detected according to the method for determining the binding affinity of CD73 on the surface of tumor cells in Example 5.

[10] = biological target: T2, extracellular domain of human CD73 …; experiment: SPR as the filing names it (method of Example 2, ForteBio OCTET R2)
Method: Surface plasmon resonance (SPR) assay: Protein A sensor was used to immobilize the antibodies, with an immobilization height of about 1.5 nM. […] Affinity detection: equilibrium for 60 s, binding for 180 s, dissociation for 180 s, at a detection temperature of 25° C. Kinetic characterization analysis was performed using the ForteBio OCTET R2 system.
The affinity of the humanized antibody to the antigen was detected by the surface plasmon resonance (SPR) assay method in Example 2.

[11] = biological target: T2, extracellular domain of human CD73 …; experiment: ForteBio Octet (the filing calls it SPR), by the method of Example 2 according to the text; sheet prints 'Loading Sample ID: FDYKSD-02-His'; traces labelled 50, 25, 12.5, 6.25, 3.13

Binder	IC50, inhibition of the catalytic function of CD73 enzyme on MDA-MB-231 cells [1]	EC50 [2]	EC50 [3]	EC50 [4]	EC50 [5]	EC50 [6]	IC50, inhibition of the catalytic function of recombinant human CD73 enzyme [7]	EC50 [8]	Max MFI [9]	Kd [10]	koff [11]	kon [11]	EC50, reversal of the AMP inhibition of human T lymphocyte proliferation [1]
B1	0.126 µg/mL	2.09 ng/mL	2.06 ng/mL										
B2				0.015 µg/mL	0.018 µg/mL	0.0179 µg/mL							
B3							55.5 ng/mL	0.043 µg/mL	106000 MFI	1.17 nM	0.000913 s⁻¹	779000 M⁻¹ s⁻¹	
B4	0.098 µg/mL	2.5 ng/mL	1.88 ng/mL				18.7 ng/mL	0.02 µg/mL	105000 MFI	0.638 nM	0.00086 s⁻¹	1.35e+06 M⁻¹ s⁻¹	0.024 µg/mL
B5							45.6 ng/mL	0.02 µg/mL	103000 MFI	1.3 nM	0.00091 s⁻¹	702000 M⁻¹ s⁻¹	
